Legend:
[1] = biological target: T1, biotinylated phosphorylated JAK2 WT peptide (p-JAK2 WT) (human (the JAK2 WT sequence is the same for both mice and humans)); experiment: solid phase binding assay, biotinylated peptide on immobilized Tkip (FIG. 4)
T1 chain: LPQDKEYYKVKEP

[2] = biological target: Recombinant human JAK2 immobilized on agarose beads (human), O60674; experiment: cell-based or functional assay
Sequence of Recombinant human JAK2 immobilized on agarose beads (human), O60674 (O60674 whole entry): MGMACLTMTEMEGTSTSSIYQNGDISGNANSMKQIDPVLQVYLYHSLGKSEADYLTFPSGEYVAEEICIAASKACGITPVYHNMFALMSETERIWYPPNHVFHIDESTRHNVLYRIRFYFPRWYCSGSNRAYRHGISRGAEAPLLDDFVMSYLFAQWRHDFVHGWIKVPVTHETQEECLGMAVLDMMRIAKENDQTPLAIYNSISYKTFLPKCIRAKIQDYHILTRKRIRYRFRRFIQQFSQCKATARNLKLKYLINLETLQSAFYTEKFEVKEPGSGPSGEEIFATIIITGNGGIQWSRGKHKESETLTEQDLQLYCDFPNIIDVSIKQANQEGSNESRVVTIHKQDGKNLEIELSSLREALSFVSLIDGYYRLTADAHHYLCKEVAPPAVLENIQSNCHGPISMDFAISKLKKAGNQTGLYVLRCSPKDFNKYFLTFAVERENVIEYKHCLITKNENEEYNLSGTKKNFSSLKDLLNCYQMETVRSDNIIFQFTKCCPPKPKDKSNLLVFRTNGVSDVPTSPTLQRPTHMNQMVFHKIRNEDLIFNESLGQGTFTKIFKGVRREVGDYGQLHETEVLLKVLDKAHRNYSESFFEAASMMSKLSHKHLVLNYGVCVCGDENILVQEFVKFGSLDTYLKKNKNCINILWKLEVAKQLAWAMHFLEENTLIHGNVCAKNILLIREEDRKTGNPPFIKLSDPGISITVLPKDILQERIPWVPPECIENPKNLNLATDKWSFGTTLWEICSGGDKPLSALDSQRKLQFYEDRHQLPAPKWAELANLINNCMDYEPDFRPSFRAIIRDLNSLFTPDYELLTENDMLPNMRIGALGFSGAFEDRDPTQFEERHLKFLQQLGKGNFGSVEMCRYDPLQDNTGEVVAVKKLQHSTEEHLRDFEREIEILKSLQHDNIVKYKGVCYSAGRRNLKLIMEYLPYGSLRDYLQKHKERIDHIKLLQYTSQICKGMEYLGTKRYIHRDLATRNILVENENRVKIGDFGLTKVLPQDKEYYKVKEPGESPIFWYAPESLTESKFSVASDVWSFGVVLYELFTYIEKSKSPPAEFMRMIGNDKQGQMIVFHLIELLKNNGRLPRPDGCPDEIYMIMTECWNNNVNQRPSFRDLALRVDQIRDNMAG

fold lower fifty percent endpoint concentration against unphosphorylated JAK2 WT [1]: 9 fold
inhibition of 32P incorporation into JAK2/IFNGR-1 (Tkip at 50 µM) [2]: > 95%
Binder: WLVFFVIFYFFR (modifications not checked) [Tkip (tyrosine kinase inhibitor peptide), …]
